± gives the uncertainty stated by the source.
B1: Syntaxin-binding protein 4, residues 493 to 538; numbered along this chain, Q6ZWJ1 (parent)
chain: LDMDCLPYGWEEAYTADGIKYFINHVTQTTSWIHPVMSVLNLSRSE

Variants of: B1
Experiment: abundance fitness (aPCA) (normalised: wild type 0, dead -1); higher = more abundant; growth selection in yeast, the domain comes from the species named
Conditions: Homo sapiens

Row | Variant | abundance fitness
1 | S45A | -0.186 ± 0.11
2 | L1G | -0.525 ± 0.21
3 | I19H | 0.293 ± 0.11
4 | Y14Q | -0.305 ± 0.1
5 | S31F | -0.734 ± 0.12
6 | G9W | -0.699 ± 0.1
7 | H25D | -1.1 ± 0.22
8 | P35W | -0.775 ± 0.16
9 | D17M | -0.88 ± 0.12
10 | T29R | -0.594 ± 0.14
11 | V26F | -0.294 ± 0.15
12 | I23T | -0.786 ± 0.16
13 | T27Y | 0.394 ± 0.15
14 | I23N | -0.708 ± 0.3
15 | G18T | -0.949 ± 0.13
16 | M3H | -0.117 ± 0.099
17 | S31Y | -0.879 ± 0.18
18 | V36H | 0.224 ± 0.14
19 | V26W | -0.846 ± 0.12
20 | W32E | -0.628 ± 0.12
21 | V26A | 0.058 ± 0.094
22 | L1E | 0.068 ± 0.21
23 | G9Q | -0.908 ± 0.13
24 | M3D | -0.103 ± 0.096

Row | Variant | abundance fitness
25 | K20V | -0.717 ± 0.089
26 | Q28P | -0.793 ± 0.14
27 | T30F | -0.998 ± 0.26
28 | M3W | -0.692 ± 0.11
29 | V36D | 0.168 ± 0.11
30 | H25M | -0.94 ± 0.22
31 | H34Q | -0.555 ± 0.15
32 | D17F | -0.942 ± 0.14
33 | Y14S | -0.462 ± 0.08
34 | R44W | -0.527 ± 0.15
35 | F22N | -0.787 ± 0.19
36 | H34I | -0.724 ± 0.19
37 | E12F | -0.801 ± 0.15
38 | W32L | -0.49 ± 0.097
39 | C5I | -0.113 ± 0.15
40 | I19A | 0.708 ± 0.078
41 | M37A | 0.219 ± 0.093
42 | D4L | -0.638 ± 0.094
43 | N24K | -1.12 ± 0.28
44 | D4Y | -0.863 ± 0.15
45 | K20R | -0.198 ± 0.075
46 | P7V | -0.742 ± 0.088
47 | I23G | -0.889 ± 0.092
48 | M3L | -0.036 ± 0.08

Row | Variant | abundance fitness
49 | L1T | -0.004 ± 0.27
50 | W32H | -1.09 ± 0.29
51 | A13C | -0.676 ± 0.12
52 | D17Y | -0.881 ± 0.14
53 | E46C | 0.486 ± 0.49
54 | H25I | -0.754 ± 0.27
55 | C5H | -0.06 ± 0.14
56 | S38I | -0.845 ± 0.23
57 | S31V | -0.373 ± 0.097
58 | L6E | -0.541 ± 0.1
59 | L42V | 0.052 ± 0.081
60 | I33Y | -0.162 ± 0.17
61 | D2R | -0.603 ± 0.09
62 | A13K | -0.534 ± 0.11
63 | E11Y | -0.909 ± 0.14
64 | T30G | -0.632 ± 0.085
65 | F22V | -0.904 ± 0.099
66 | S31D | -0.89 ± 0.19
67 | V36N | 0.571 ± 0.14
68 | I23K | -0.282 ± 0.14
69 | S38H | -0.678 ± 0.21
70 | H34S | -0.443 ± 0.097
71 | F22S | -0.832 ± 0.11
72 | N24F | -0.835 ± 0.21

Row | Variant | abundance fitness
73 | P7L | -0.711 ± 0.095
74 | T15F | -0.883 ± 0.14
75 | C5W | -0.533 ± 0.1
76 | R44F | -0.881 ± 0.18
77 | F22E | -0.789 ± 0.14
78 | G9A | -0.803 ± 0.087
79 | V36W | -0.424 ± 0.12
80 | H25A | -0.927 ± 0.12
81 | Y14W | -0.271 ± 0.086
82 | P35C | -1.06 ± 0.21
83 | S45W | -0.914 ± 0.22
84 | K20W | -0.686 ± 0.1
85 | I19N | 0.65 ± 0.12
86 | T29V | 0.766 ± 0.1
87 | L1W | -0.334 ± 0.15
88 | A16Y | -0.606 ± 0.1
89 | L6M | -0.692 ± 0.12
90 | I23Q | -0.829 ± 0.18
91 | G18Y | -0.787 ± 0.15
92 | C5A | 0.238 ± 0.084
93 | K20M | -0.848 ± 0.12
94 | Y8L | -0.367 ± 0.082
95 | G9R | -0.846 ± 0.088
96 | Y14D | -0.976 ± 0.14

Row | Variant | abundance fitness
97 | V26T | 0.168 ± 0.12
98 | G9E | -0.184 ± 0.088
99 | I33E | 0.511 ± 0.12
100 | T27V | -0.872 ± 0.1
101 | P7G | -0.719 ± 0.086
102 | N24R | -0.876 ± 0.12
103 | E46N | -0.139 ± 0.31
104 | N41D | 0.174 ± 0.12
105 | Y14G | -0.773 ± 0.087
106 | I33C | 0.031 ± 0.12
107 | T29M | -0.789 ± 0.19
108 | N24M | -0.978 ± 0.27
109 | D2C | -0.699 ± 0.12
110 | G18K | -0.453 ± 0.12
111 | Q28M | 0.031 ± 0.14
112 | A13H | -1.01 ± 0.17
113 | S31P | -0.788 ± 0.13
114 | C5N | -0.254 ± 0.12
115 | E12Q | -0.463 ± 0.12
116 | Y21F | -0.91 ± 0.24
117 | N41E | -0.227 ± 0.1
118 | T27M | 0.168 ± 0.1
119 | K20L | -0.794 ± 0.094
120 | S38A | -0.649 ± 0.1

Row | Variant | abundance fitness
121 | E11M | -0.793 ± 0.11
122 | V39L | -0.386 ± 0.097
123 | L6I | -0.965 ± 0.2
124 | N41L | -0.684 ± 0.1
125 | M37R | 0.558 ± 0.079
126 | G9I | -0.459 ± 0.19
127 | Q28A | -0.509 ± 0.11
128 | I23Y | -0.209 ± 0.16
129 | V39T | 0.04 ± 0.11
130 | E12G | -0.818 ± 0.083
131 | A16M | -0.5 ± 0.12
132 | E12K | -0.953 ± 0.13
133 | E11C | -0.861 ± 0.11
134 | P35T | -0.686 ± 0.16
135 | S38Q | -0.697 ± 0.15
136 | Y21K | -0.923 ± 0.17
137 | P35H | -0.83 ± 0.15
138 | P7S | -0.834 ± 0.1
139 | T27H | 0.176 ± 0.16
140 | E46L | -0.668 ± 0.37
141 | P35N | -0.862 ± 0.18
142 | W10V | -0.651 ± 0.087
143 | I33K | -0.276 ± 0.13
144 | W32N | -0.342 ± 0.25

Row | Variant | abundance fitness
145 | V39E | 0.144 ± 0.098
146 | Q28T | -0.81 ± 0.13
147 | F22P | -0.895 ± 0.15
148 | E11S | -0.433 ± 0.081
149 | L40T | -0.319 ± 0.11
150 | V39P | 1.03 ± 0.11
151 | L40F | -0.304 ± 0.14
152 | M37L | -0.085 ± 0.092
153 | N24Q | -0.923 ± 0.2
154 | W10I | -0.596 ± 0.13
155 | T15P | -0.531 ± 0.093
156 | T15Y | -0.65 ± 0.13
157 | H34M | -0.74 ± 0.17
158 | T15I | -0.772 ± 0.1
159 | L40K | 0.041 ± 0.11
160 | Y14N | -0.994 ± 0.17
161 | H34C | -0.439 ± 0.12
162 | E11V | -0.531 ± 0.083
163 | L42S | 0.162 ± 0.095
164 | A16G | -0.445 ± 0.095
165 | W10M | -0.918 ± 0.13
166 | L40C | -0.154 ± 0.11
167 | S38V | -0.502 ± 0.094

From the Human Domainome abundance scans (Beltran et al. 2025)
